Assay results reported in PMC3794980.

Assays:
Experiment in all cases: radioligand binding
[1] = biological target: HLA-DR DRB5*0101 (human (endogenous in EBV transformed cell lines))
[2] = biological target: HLA-DR DRB1*1501 (human (endogenous in EBV transformed cell lines))
[3] = biological target: HLA-DR DRB4*0101 (human (endogenous in EBV transformed cell lines))
[4] = biological target: HLA-DR DRB1*0101 (human (endogenous in EBV transformed cell lines))
[5] = biological target: HLA-DR DRB1*0405 (human (endogenous in EBV transformed cell lines))
[6] = biological target: HLA-DR DRB3*0101 (human (endogenous in EBV transformed cell lines))
[7] = biological target: HLA-DR DRB1*0802 (human (endogenous in EBV transformed cell lines))
[8] = biological target: HLA-DR DRB1*0301 (human (endogenous in EBV transformed cell lines))
[9] = biological target: HLA-DR DRB1*0401 (human (endogenous in EBV transformed cell lines))
[10] = biological target: HLA-DR DRB1*0701 (human (endogenous in EBV transformed cell lines))
[11] = biological target: HLA-DR DRB1*0901 (human (endogenous in EBV transformed cell lines))
[12] = biological target: HLA-DR DRB1*1101 (human (endogenous in EBV transformed cell lines))
[13] = biological target: HLA-DR DRB1*1302 (human (endogenous in EBV transformed cell lines))

DENV3 NS3 53-67 (peptide)
IC50 [1]: 329 nM

DENV3 Envelope 121-135 (peptide)
IC50 [2]: 404 nM

DENV3 NS3 181-195 (peptide)
IC50 [2]: 891 nM | IC50 [3]: 67.8 nM

DENV3 NS5 268-284 (peptide)
IC50 [3]: 869 nM

DENV3 NS3 209-223 (peptide)
IC50 [3]: 5.06 nM

DENV3 NS3 101-115 (peptide)
IC50 [4]: 201 nM | IC50 [5]: 725 nM | IC50 [2]: 447 nM

DENV3 NS1 269-283 (peptide)
IC50 [6]: 71.3 nM

DENV3 NS5 570-586 (peptide)
IC50 [1]: 27.8 nM

DENV3 NS3 109-123 (peptide)
IC50 [4]: 148 nM | IC50 [7]: 557 nM

DENV3 Envelope 251-265 (peptide)
IC50 [4]: 588 nM | IC50 [1]: 722 nM

DENV3 NS1 261-275 (peptide)
IC50 [3]: 666 nM

DENV3 NS1 305-319 (peptide)
IC50 [8]: 841 nM

DENV3 NS5 501-517 (peptide)
IC50 [4]: 6.98 nM | IC50 [9]: 73.6 nM | IC50 [10]: 17.5 nM | IC50 [7]: 836 nM | IC50 [11]: 351 nM

DENV3 NS3 381-395 (peptide)
IC50 [6]: 399 nM

DENV3 NS5 658-674 (peptide)
IC50 [7]: 453 nM

DENV3 NS1 133-147 (peptide)
IC50 [6]: 62.3 nM

DENV3 Envelope 376-390 (peptide)
IC50 [4]: 476 nM | IC50 [7]: 84.6 nM | IC50 [2]: 448 nM | IC50 [6]: 15.3 nM

DENV3 NS5 636-652 (peptide)
IC50 [10]: 352 nM | IC50 [2]: 453 nM

DENV3 NS5 295-311 (peptide)
IC50 [6]: 980 nM

DENV3 NS1 297-311 (peptide)
IC50 [4]: 228 nM | IC50 [9]: 484 nM | IC50 [10]: 262 nM | IC50 [7]: 561 nM | IC50 [2]: 736 nM

DENV3 NS1 293-307 (peptide)
IC50 [10]: 83.2 nM | IC50 [3]: 793 nM

DENV3 NS5 642-658 (peptide)
IC50 [4]: 166 nM | IC50 [8]: 775 nM | IC50 [12]: 665 nM | IC50 [2]: 59.4 nM | IC50 [1]: 5.07 nM

DENV3 Envelope 261-275 (peptide)
IC50 [10]: 82.1 nM

DENV3 NS5 588-604 (peptide)
IC50 [12]: 124 nM

DENV3 NS3 185-199 (peptide)
IC50 [8]: 870 nM | IC50 [9]: 171 nM | IC50 [5]: 972 nM | IC50 [7]: 21 nM | IC50 [12]: 71.8 nM | IC50 [3]: 7.64 nM

DENV3 NS3 73-87 (peptide)
IC50 [1]: 70.7 nM

DENV3 NS5 330-346 (peptide)
IC50 [7]: 4.01 nM

DENV3 NS5 511-527 (peptide)
IC50 [3]: 56.7 nM | IC50 [1]: 611 nM

DENV3 NS3 61-75 (peptide)
IC50 [13]: 84.5 nM | IC50 [1]: 143 nM

DENV3 NS5 838-854 (peptide)
IC50 [11]: 680 nM | IC50 [6]: 79.2 nM

DENV3 NS3 349-363 (peptide)
IC50 [2]: 608 nM | IC50 [6]: 221 nM

DENV3 NS1 225-239 (peptide)
IC50 [9]: 322 nM | IC50 [13]: 58.9 nM

DENV3 NS1 69-83 (peptide)
IC50 [6]: 50.2 nM

DENV3 NS1 93-107 (peptide)
IC50 [10]: 483 nM

DENV3 NS5 39-55 (peptide)
IC50 [6]: 749 nM | IC50 [3]: 563 nM

DENV3 NS5 780-795 (peptide)
IC50 [3]: 168 nM

DENV3 NS5 165-181 (peptide)
IC50 [1]: 19.9 nM

DENV3 NS5 523-539 (peptide)
IC50 [4]: 733 nM | IC50 [8]: 9.29 nM | IC50 [9]: 7.25 nM | IC50 [12]: 170 nM | IC50 [6]: 44.8 nM | IC50 [3]: 445 nM

DENV3 NS5 284-300 (peptide)
IC50 [8]: 9.34 nM | IC50 [9]: 306 nM | IC50 [6]: 17.1 nM

DENV3 NS3 113-127 (peptide)
IC50 [4]: 226 nM | IC50 [9]: 17.9 nM

DENV3 NS3 69-83 (peptide)
IC50 [2]: 29.5 nM

DENV3 Envelope 396-410 (peptide)
IC50 [4]: 4.89 nM | IC50 [8]: 424 nM | IC50 [10]: 296 nM | IC50 [7]: 106 nM | IC50 [11]: 39.9 nM | IC50 [12]: 38.9 nM | IC50 [2]: 258 nM | IC50 [6]: 424 nM | IC50 [1]: 26.8 nM

DENV3 NS3 413-427 (peptide)
IC50 [8]: 261 nM | IC50 [6]: 96.1 nM

DENV3 NS5 576-592 (peptide)
IC50 [13]: 297 nM | IC50 [3]: 108 nM

DENV3 NS1 173-187 (peptide)
IC50 [4]: 25.9 nM | IC50 [8]: 787 nM | IC50 [9]: 502 nM | IC50 [11]: 608 nM | IC50 [12]: 651 nM | IC50 [6]: 57.5 nM | IC50 [1]: 753 nM

DENV3 NS5 290-306 (peptide)
IC50 [4]: 299 nM
